Here are results for two molecules from patent US20170240920A1 (UCL BUSINESS, published 2017).

No end group written: not given here.

The target of the assay is T1, Streptavidin (Streptomyces avidinii, UniProt P22629 37-163, limits assumed).
T1 construct: The same protein was used as APC conjugate (flow cytometry) and on beads (sorting, virus capture); also called Streptavidin-APC; Streptavidin conjugated to Allophycocyanin
Briefly: flow cytometry, Streptavidin-APC staining of transfected 293T cells.

T1 sequence (P22629 37-163 limits assumed): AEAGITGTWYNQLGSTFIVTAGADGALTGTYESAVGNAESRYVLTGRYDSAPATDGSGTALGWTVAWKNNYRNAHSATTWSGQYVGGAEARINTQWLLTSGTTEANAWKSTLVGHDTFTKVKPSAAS

B1: Flankedccstreptag-d8-x2-GPI (other)
chain: ECHPQGPPCIEGRKSSGGGGSPAPRPPTPAPTIASECHPQGPPCIEGRKS
modifications: cysteine pairing not given here; also: GPI anchor at C-terminal side, attached after further residues not given here
notes: Two copies of the tag separated by a CD8-based linker; also called MP13024; Flankedccstreptag GPI (x2); not shown: residues between the second tag and the GPI attachment site
Consider B1, for which the binding result is “binds”.

B2: StreptagII-d8-x2 on a GPI anchor (other)
chain: WSHPQFEKSGGGGSPAPRPPTPAPTIASWSHPQFEK
modifications: also: GPI anchor at C-terminal side, attached after further residues not given here
notes: Two copies of the tag separated by a CD8-based linker; expressed on the surface of transfected HEK 293T cells; also called StreptagII GPI (x2); Streptagll-d8-x2; not shown: residues between the second tag and the GPI attachment site
Take B2: the binding result is “binds”.
